In the supplement of paper PMC9942255:

Each sequence was assayed on Bacillus subtilis DB104 (SP-AmyQ fusion secretion) (assay: AmyQ secretion efficiency, weighted average sort bin (1 = best secretion, 10 = worst) (bin number (weighted average, 1-10)); higher = lower secretion efficiency).
Method in brief: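 The secretion score was taken as the read-frequency-weighted mean bin number, normalised to beads per bin, with low-abundance sequences excluded. Bins came from large-particle flow cytometry sorting of occupied alginate beads (~65 nL, about 0.3 cells each, with fluorescein-starch) into 10 equally populated groups by green/red fluorescence ratio after about 13 h at room temperature and nile red staining. The cells were a B. subtilis DB104 library with mature AmyQ fused to designed signal peptides, integrated at amyE, and each bin's amplicons were Illumina-sequenced.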
MKKGIIRFLLVSFVLFSTGITGVQAAPA gave an AmyQ secretion efficiency of 2.37.
For MKKWRYTKRQRKLILAGIALFVFISPLKSHKT, the AmyQ secretion efficiency was 6.51.
With MKLSVKIAGVLTVAAAAMTAKMYATAAGN the AmyQ secretion efficiency was 6.91.
MKKWIYVVLVLSIAGIGGFSVHYASS was tested, and the AmyQ secretion efficiency was 8.11.
For MSKKTWMVGLLAGCLAAGGFSYNAFATEN, the AmyQ secretion efficiency was 4.68.
Work on MLCVMMLLFSAIATFVVVAQAKDQ yielded an AmyQ secretion efficiency of 6.49.
With MKKIVSILFMFGLVMGFSSFFPSTVFAADK the AmyQ secretion efficiency was 3.12.
In the case of MNFMFTVVSALSISALALSVSGVASAHEI, the AmyQ secretion efficiency is reported as 3.15.
With MGFVSSSIIALVTILMLSVTSLFALQPSAKAAEH the AmyQ secretion efficiency was 2.48.
For MHLITAAGAVCLAVVLIAGCRFNEDQHQAEGENT, the AmyQ secretion efficiency was 5.34.
With MKKRFSLIMMTGLLFGLTSPDEKAFAAEK the AmyQ secretion efficiency was 2.56.
MRPVFPLILSAVLFLSCFDDDDDTEASASKR was tested, and the AmyQ secretion efficiency was 4.17.
MKKIMSARRRRVLLTIFCFSPQASAAYD was tested, and the AmyQ secretion efficiency was 7.27.
MMIKQCVICLSLLVFGTTASGTAHAEET gave an AmyQ secretion efficiency of 2.45.
MMIKQCVICLSLLVFGTTAAHSEET gave an AmyQ secretion efficiency of 4.24.
In the case of MKKVLMAFIICLSLILSVLAAPPSGAKPESV, the AmyQ secretion efficiency is reported as 4.65.
Sequence MKIRKQRGYTGLSFGMLISAVPALAAGT has an AmyQ secretion efficiency of 6.92.
With MKLSVKIAGVLTVAAAAMTAGMYATAKGN the AmyQ secretion efficiency was 5.78.
Work on MLKKKWMVGLLAGCLAAGEDDEEDAFATEN yielded an AmyQ secretion efficiency of 5.44.
In the case of MKQGKFSVFLILLLMLTLVVAPKEKAEAASD, the AmyQ secretion efficiency is reported as 1.02.
Work on MKSCKQLIVCSLAAILLLIPSVSFAAPD yielded an AmyQ secretion efficiency of 2.43.
With MLTKRLLTIYIMLLGLITWFPGAAQAEEK the AmyQ secretion efficiency was 2.44.
Sequence MSGGGILALFVLSLGLLSFMVTPVSAASK has an AmyQ secretion efficiency of 2.53.
In the case of MKKKLAAGLTASAIVGTTLVVTPIEAATI, the AmyQ secretion efficiency is reported as 2.11.
With MYGKIALTLCPAIVGSLLFFTAPASAHVS the AmyQ secretion efficiency was 2.26.
MSKGIIRFLLVSFVLFFALSTGITGVQAAPA was tested, and the AmyQ secretion efficiency was 2.19.
In the case of MKSKWMSGLLLVAVGFSFTSVMVHAGET, the AmyQ secretion efficiency is reported as 7.31.
Sequence MKIRKILLSSALSFGMLLILTSISAVPALAAGT has an AmyQ secretion efficiency of 2.99.
Work on MKLWMRKTLRRKKRKVTFGLVSPPAALMADKP yielded an AmyQ secretion efficiency of 7.28.
With MKKQIITATTAVVLGSTLFAGAPSAQSI the AmyQ secretion efficiency was 3.52.
Sequence MTKKAWFLPLVCVLLISGWLAPAASCSAQTT has an AmyQ secretion efficiency of 3.03.
In the case of MKKGIIRFLLVSFVLFFALSTGITGVQAARK, the AmyQ secretion efficiency is reported as 2.85.
Work on MRKKLKWLSFLLGFIILLFLFKYQFSFNDS yielded an AmyQ secretion efficiency of 6.3.
MLKKIALTLCPAIVGSLLFFTAPSSAHVS was tested, and the AmyQ secretion efficiency was 3.86.
With MKKLVLCVSILAVILSGVGLTQLS the AmyQ secretion efficiency was 5.94.
In the case of MKKSQYFIVFICFFVLFSRRKHKRRAAAADS, the AmyQ secretion efficiency is reported as 7.81.
In the case of MKLRKMVLTGSVLSLGLLVSASPAFATSP, the AmyQ secretion efficiency is reported as 1.54.
With MPIKKKVMMCLAVTLVFGSMSFPTLTNEGGFKE the AmyQ secretion efficiency was 4.78.
Work on MGLGKKLSVAVAASFPGVQAAEG yielded an AmyQ secretion efficiency of 7.32.
MKKKQVMLALTAAAGLGLTALHSAPAGKAAPL showed an AmyQ secretion efficiency of 5.58.
MRNLTKTSLLLAGLCTAAQMVFVTHTSAEES was tested, and the AmyQ secretion efficiency was 3.23.
With MRKTSLLLAGLCTAAQMVFVTHASAEES the AmyQ secretion efficiency was 2.32.
Work on MRSKKLWISLLFALTLIRKRKKRNMSAQAAGK yielded an AmyQ secretion efficiency of 9.84.
MRFTKVVGFLSVLGLAAVFPLTAQARKR gave an AmyQ secretion efficiency of 7.26.
In the case of MRKNRILALFVLSLGLLSFMVTPVSTASK, the AmyQ secretion efficiency is reported as 5.93.
MNFKKTGVSALSISALALSVSGVASAHEI showed an AmyQ secretion efficiency of 3.9.
Work on MKRRLSTLLIGIMLLTFAPSAFAKQD yielded an AmyQ secretion efficiency of 1.82.
With MFNRLFRVCFLAALIMAFTLPNSDYAQKP the AmyQ secretion efficiency was 6.44.
In the case of MKKKLKKGLTASAIVGTTLVVTPAEAATI, the AmyQ secretion efficiency is reported as 5.93.
MFKIMSAFVGMVLLTIFCFSPQASAAYD gave an AmyQ secretion efficiency of 3.33.
MKKAFLVFLSVVLVTTVFLVKQQESVHQAKQL gave an AmyQ secretion efficiency of 6.34.
With MRSYIKVLTMCFLGLILFVPTLLADNS the AmyQ secretion efficiency was 4.36.
For MKSKGSIMACLILFSFTITTTINTETISAFSN, the AmyQ secretion efficiency was 5.95.
In the case of MKKRLIAPMLLSAASLAFFAMSGSAQYAAY, the AmyQ secretion efficiency is reported as 6.56.
MLCKRKRLFSAIASFPVSAQAKDQ gave an AmyQ secretion efficiency of 7.61.
MNLRKILLSSALSLGMLVSAAPWLATSS gave an AmyQ secretion efficiency of 6.1.
In the case of MKRTWNGCGQGQLSVLLVAGSVPFHAEAKKP, the AmyQ secretion efficiency is reported as 2.05.
Work on MKRVCLTALLSVLLVAGSVPFHAEAKKP yielded an AmyQ secretion efficiency of 2.1.
MKRIRIPMTLALGAALTIAPLSFHSAEEN showed an AmyQ secretion efficiency of 7.02.
With MKKRRIVSILFMFGLVMGFSQFQPSTVFAADK the AmyQ secretion efficiency was 2.46.
In the case of MKLAKRVSALTPSTTLAITKKAKEL, the AmyQ secretion efficiency is reported as 6.57.
MSGSRVITCVMAASLTLGSLLPAGYASAKED gave an AmyQ secretion efficiency of 3.72.
For MKRLLVSLRVWMVFLMNWVTPDRKTAAGAVY, the AmyQ secretion efficiency was 7.15.
With MNLRKILLSSALSLGMLVSAAPALATSS the AmyQ secretion efficiency was 2.26.
